In PMC3732869:

Target: PTH receptors on UMR 106 cells (rat (endogenous in UMR 106)) (UniProt P25961)
Sequence of UniProt P25961 (P25961 27-591): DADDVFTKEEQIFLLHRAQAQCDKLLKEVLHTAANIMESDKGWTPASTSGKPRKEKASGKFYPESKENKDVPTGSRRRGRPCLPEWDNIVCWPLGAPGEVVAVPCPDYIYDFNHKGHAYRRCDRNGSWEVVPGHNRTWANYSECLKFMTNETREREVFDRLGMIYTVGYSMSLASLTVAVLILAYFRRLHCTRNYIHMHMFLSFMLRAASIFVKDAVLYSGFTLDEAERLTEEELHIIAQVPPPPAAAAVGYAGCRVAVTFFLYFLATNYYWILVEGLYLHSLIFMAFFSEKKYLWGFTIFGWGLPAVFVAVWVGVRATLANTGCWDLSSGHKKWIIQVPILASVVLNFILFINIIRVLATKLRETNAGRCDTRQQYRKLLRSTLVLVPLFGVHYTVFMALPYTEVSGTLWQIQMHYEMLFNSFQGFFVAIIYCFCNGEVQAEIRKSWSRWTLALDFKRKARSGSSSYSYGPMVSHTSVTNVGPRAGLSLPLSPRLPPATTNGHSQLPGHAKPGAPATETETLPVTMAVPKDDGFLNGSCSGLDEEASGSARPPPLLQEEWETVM

Substance: recombinant human parathyroid hormone (rhPTH 1-34) (peptide)
- potency in the cAMP bioassay on UMR 106 cells, against the standard: 99.7%
